This is an account of results in patent publication US4235962A, “Combination kit for transaminase assay of a body fluid” (The Dow Chemical Company, priority 1978, dated 1980).

Substrate in data set [1]: C[C@H](N)C(=O)O
Put plainly: purified protein, by the assay type. Particulars: other: 15 mM 2-oxoglutarate.

Substrate in data set [2]: N[C@@H](CC(=O)O)C(=O)O
Nature of the data set: purified protein, by the assay type.

B1: ALT (alanine 2-oxoglutarate aminotransferase) (Homo sapiens) (protein)
chain: ASSTGDRSQAVRHGLRAKVLTLDGMNPRVRRVEYAVRGPIVQRALELEQELRQGVKKPFTEVIRANIGDAQAMGQRPITFLRQVLALCVNPDLLSSPNFPDDAKKRAERILQACGGHSLGAYSVSSGIQLIREDVARYIERRDGGIPADPNNVFLSTGASDAIVTVLKLLVAGEGHTRTGVLIPIPQYPLYSATLAELGAVQVDYYLDEERAWALDVAELHRALGQARDHCRPRALCVINPGNPTGQVQTRECIEAVIRFAFEERLFLLADEVYQDNVYAAGSQFHSFKKVLMEMGPPYAGQQELASFHSTSKGYMGECGFRGGYVEVVNMDAAVQQQMLKLMSVRLCPPVPGQALLDLVVSPPAPTDPSFAQFQAEKQAVLAELAAKAKLTEQVFNEAPGISCNPVQGAMYSFPRVQLPPRAVERAQELGLAPDMFFCLRLLEETGICVVPGSGFGQREGTYHFRMTILPPLEKLRLLLEKLSRFHAKFTLEYS
The term Km denotes the concentration of substrate that gives half-maximal velocity. As for B1, in data set [1], the Km is reported as 18.1 mM.

B2: AST (aspartate 2-oxoglutarate aminotransferase) (Homo sapiens) (protein)
chain: APPSVFAEVPQAQPVLVFKLTADFREDPDPRKVNLGVGAYRTDDCHPWVLPVVKKVEQKIANDNSLNHEYLPILGLAEFRSCASRLALGDDSPALKEKRVGGVQSLGGTGALRIGADFLARWYNGTNNKNTPVYVSSPTWENHNAVFSAAGFKDIRSYRYWDAEKRGLDLQGFLNDLENAPEFSIVVLHACAHNPTGIDPTPEQWKQIASVMKHRFLFPFFDSAYQGFASGNLERDAWAIRYFVSEGFEFFCAQSFSKNFGLYNERVGNLTVVGKEPESILQVLSQMEKIVRITWSNPPAQGARIVASTLSNPELFEEWTGNVKTMADRILTMRSELRARLEALKTPGTWNHITDQIGMFSFTGLNPKQVEYLVNEKHIYLLPSGRINVSGLTTKNLDYVATSIHEAVTKIQ
As for B2, the Km in data set [2] (other: 0.2 mM 2-oxoglutarate) turned out to be 0.91 mM; in data set [2] (other: 15 mM 2-oxoglutarate) it was 10 mM.
